Measured values: publication PMC2814181
pKd: −log10 of the molar value. One block for each substance: values may come before it.

Key:
[1] = target: Neptune (mKate M41G S61C S158C Y194F); test: native gel or EMSA
[2] = target: Neptune (mKate M41G S61C S158C Y194F); test: SEC-MALS
[3] = target: Neptune (mKate M41G S61C S158C Y194F); test: AUC
[4] = target: Neptune, His tag removed by TEV protease (crystallized form); test: crystal structure
dTomato [5] = test: native gel or EMSA
dTomato [6] = test: SDS-PAGE of unboiled samples
dTomato [7] = test: SEC-MALS
mKate [8] = test: native gel or EMSA
mKate [9] = test: SEC-MALS

- stoichiometry N [1]: 2
- stoichiometry N [2]: 2
- pKd [3]: 6.30
Substance: Neptune (mKate M41G S61C S158C Y194F)

- stoichiometry N [4]: 4
Substance: Neptune, His tag removed by TEV protease (crystallized form)

- stoichiometry N (dTomato [5]): 2
- stoichiometry N (dTomato [6]): 2
- stoichiometry N (dTomato [7]): 2
Substance: dTomato

- stoichiometry N (mKate [8]): 2
- stoichiometry N (mKate [9]): 2
Substance: mKate
